This is an account of results in paper PMC8004131 (Viruses, 2021).

For data set [1], the target named is Mojiang virus attachment glycoprotein (MojV G), full length, S-tagged (Mojiang virus). Nature of the data set: cross-linking.
For data set [2], the target named is Mojiang virus fusion glycoprotein (MojV F), full length, S-tagged (Mojiang virus). The data set is described as follows: cross-linking.
In data set [3] the target is soluble tetrameric Ghana virus attachment glycoprotein (GhV sG) (Ghana virus). The data set is described as follows: negative-stain electron microscopy.
For data set [4], the target named is soluble tetrameric Mojiang virus attachment glycoprotein (MojV sG) (Mojiang virus). The data set is described as follows: negative-stain electron microscopy.
For data set [5], the target named is soluble trimeric Cedar virus fusion glycoprotein (CedV sF) (Cedar virus). The data set is described as follows: negative-stain electron microscopy.
Data set [6] deals with soluble trimeric Mojiang virus fusion glycoprotein (MojV sF) (Mojiang virus). Nature of the data set: negative-stain electron microscopy.
Data set [7] concerns the molecule itself. Nature of the data set: cross-linking.

As usually defined, the stoichiometry N is a count of units in the complex or per binding partner. The molecule “Mojiang virus attachment glycoprotein (MojV G), full length, S-tagged (natural protein)” registered a stoichiometry N in data set [1] of 4.
“Mojiang virus fusion glycoprotein (MojV F), full length, S-tagged (natural protein)”: the stoichiometry N in data set [2] was 3.
For “soluble tetrameric Ghana virus attachment glycoprotein (GhV sG) (domain or fragment)”, the stoichiometry N in data set [3] stood at 4.
“soluble tetrameric Mojiang virus attachment glycoprotein (MojV sG) (domain or fragment)” gave a stoichiometry N in data set [4] of 4.
The molecule “soluble trimeric Cedar virus fusion glycoprotein (CedV sF) (domain or fragment)” registered a stoichiometry N in data set [5] of 3.
Molecule “soluble trimeric Mojiang virus fusion glycoprotein (MojV sF) (domain or fragment)” came in with a stoichiometry N in data set [6] of 3.

B1: Cedar virus attachment glycoprotein (CedV G), full length, S-tagged (natural protein)
chain: MLSQLQKNYLDNSNQQGDKMNNPDKKLSVNFNPLELDKGQKDLNKSYYVKNKNYNVSNLLNESLHDIKFCIYCIFSLLIIITIINIITISIVITRLKVHEENNGMESPNLQSIQDSLSSLTNMINTEITPRIGILVTATSVTLSSSINYVGTKTNQLVNELKDYITKSCGFKVPELKLHECNISCADPKISKSAMYSTNAYAELAGPPKIFCKSVSKDPDFRLKQIDYVIPVQQDRSICMNNPLLDISDGFFTYIHYEGINSCKKSDSFKVLLSHGEIVDRGDYRPSLYLLSSHYHPYSMQVINCVPVTCNQSSFVFCHISNNTKTLDNSDYSSDEYYITYFNGIDRPKTKKIPINNMTADNRYIHFTFSGGGGVCLGEEFIIPVTTVINTDVFTHDYCESFNCSVQTGKSLKEICSESLRSPTNSSRYNLNGIMIISQNNMTDFKIQLNGITYNKLSFGSPGRLSKTLGQVLYYQSSMSWDTYLKAGFVEKWKPFTPNWMNNTVISRPNQGNCPRYHKCPEICYGGTYNDIAPLDLGKDMYVSVILDSDQLAENPEITVFNSTTILYKERVSKDELNTRSTTTSCFLFLDEPWCISVLETNRFNGKSIRPEIYSYKIPKYC
notes: source: BSR-T7/5, transfected, on cells; precipitated from lysate with S protein agarose; not shown: S-tag, N-terminal, kept
Consider B1, for which the “stoichiometry N” value in data set [7] was determined as 4.

B2: Hendra virus attachment glycoprotein (HeV G), full length, S-tagged (natural protein)
chain: MMADSKLVSLNNNLSGKIKDQGKVIKNYYGTMDIKKINDGLLDSKILGAFNTVIALLGSIIIIVMNIMIIQNYTRTTDNQALIKESLQSVQQQIKALTDKIGTEIGPKVSLIDTSSTITIPANIGLLGSKISQSTSSINENVNDKCKFTLPPLKIHECNISCPNPLPFREYRPISQGVSDLVGLPNQICLQKTTSTILKPRLISYTLPINTREGVCITDPLLAVDNGFFAYSHLEKIGSCTRGIAKQRIIGVGEVLDRGDKVPSMFMTNVWTPPNPSTIHHCSSTYHEDFYYTLCAVSHVGDPILNSTSWTESLSLIRLAVRPKSDSGDYNQKYIAITKVERGKYDKVMPYGPSGIKQGDTLYFPAVGFLPRTEFQYNDSNCPIIHCKYSKAENCRLSMGVNSKSHYILRSGLLKYNLSLGGDIILQFIEIADNRLTIGSPSKIYNSLGQPVFYQASYSWDTMIKLGDVDTVDPLRVQWRNNSVISRPGQSQCPRFNVCPEVCWEGTYNDAFLIDRLNWVSAGVYLNSNQTAENPVFAVFKDNEILYQVPLAEDDTNAQKTITDCFLLENVIWCISLVEIYDTGDSVIRPKLFAVKIPAQCSES
In the case of B2, the “stoichiometry N” value in data set [7] is 4.
